Source: paper PMC11513116
Where “and” joins values, the source holds several entries; their conditions need not be identical. Equal entries are not always repeated.

Target: GCSC1-GFP fusion protein (UBIpro::GCSC1-GFP) (rice (variety Lemont))
Experiment: native gel or EMSA

## GCSC1-GFP fusion protein (UBIpro::GCSC1-GFP) (natural protein)
  stoichiometry N: 2 and 4
